Measurements reported in patent US20040205843A1 (NORTH CAROLINA STATE UNIVERSITY, published 2004).
Substitutions are numbered along the chain they refer to.

T1: AL1 147-352 (tomato golden mosaic virus (TGMV), UniProt P03567 147-352)
T1 sequence: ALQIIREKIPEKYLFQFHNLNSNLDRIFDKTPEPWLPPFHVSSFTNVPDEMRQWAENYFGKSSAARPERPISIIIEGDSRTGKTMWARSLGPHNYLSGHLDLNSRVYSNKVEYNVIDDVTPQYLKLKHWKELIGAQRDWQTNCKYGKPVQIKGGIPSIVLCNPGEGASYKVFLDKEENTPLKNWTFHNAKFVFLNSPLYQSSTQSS

T2: AL1 160-352 (tomato golden mosaic virus (TGMV), UniProt P03567 160-352)
T2 sequence: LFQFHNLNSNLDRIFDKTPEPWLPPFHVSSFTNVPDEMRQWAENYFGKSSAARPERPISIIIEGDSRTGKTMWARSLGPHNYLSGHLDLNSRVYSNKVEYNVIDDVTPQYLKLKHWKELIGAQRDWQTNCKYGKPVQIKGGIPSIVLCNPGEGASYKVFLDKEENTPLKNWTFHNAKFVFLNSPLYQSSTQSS

T3: TGMV AL1, wild type, full length, untagged (tomato golden mosaic virus (TGMV), UniProt P03567 1-352)
T3 construct: also called Rep; authentic AL1
T3 sequence: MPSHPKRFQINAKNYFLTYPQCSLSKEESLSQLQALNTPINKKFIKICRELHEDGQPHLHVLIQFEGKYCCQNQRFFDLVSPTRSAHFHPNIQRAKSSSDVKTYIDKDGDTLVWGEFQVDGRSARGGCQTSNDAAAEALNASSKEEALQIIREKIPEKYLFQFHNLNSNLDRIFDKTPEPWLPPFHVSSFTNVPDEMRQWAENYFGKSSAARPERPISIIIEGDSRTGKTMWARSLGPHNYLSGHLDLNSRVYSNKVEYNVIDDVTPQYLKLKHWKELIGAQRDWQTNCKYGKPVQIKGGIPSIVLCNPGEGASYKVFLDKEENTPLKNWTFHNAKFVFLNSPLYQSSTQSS

T4: AL1 134-352 (tomato golden mosaic virus (TGMV), UniProt P03567 134-352)
T4 sequence: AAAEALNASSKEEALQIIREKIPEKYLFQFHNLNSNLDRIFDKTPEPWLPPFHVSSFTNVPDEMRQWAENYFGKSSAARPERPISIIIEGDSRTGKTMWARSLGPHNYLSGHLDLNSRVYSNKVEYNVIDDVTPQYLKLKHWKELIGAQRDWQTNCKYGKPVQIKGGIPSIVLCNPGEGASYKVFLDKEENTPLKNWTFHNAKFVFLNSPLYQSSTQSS

T5: AL1 119-352 (tomato golden mosaic virus (TGMV), UniProt P03567 119-352)
T5 sequence: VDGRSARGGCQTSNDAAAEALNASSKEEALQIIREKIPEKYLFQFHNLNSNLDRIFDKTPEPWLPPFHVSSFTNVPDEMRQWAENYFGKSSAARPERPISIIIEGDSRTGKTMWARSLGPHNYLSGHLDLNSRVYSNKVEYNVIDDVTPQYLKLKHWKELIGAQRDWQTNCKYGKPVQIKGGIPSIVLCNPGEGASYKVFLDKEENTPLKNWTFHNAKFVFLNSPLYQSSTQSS

T6: Full length GST-AL1 1-352 (tomato golden mosaic virus (TGMV), UniProt P03567 1-352)
T6 sequence: T3 sequence

T7: GST-AL1(119-352) (tomato golden mosaic virus (TGMV), UniProt P03567 119-352)
T7 construct: also called N-terminal truncation of AL1 fused to GST
T7 sequence: T5 sequence

T8: GST-AL1(1-180) (tomato golden mosaic virus (TGMV), UniProt P03567 1-180)
T8 construct: also called C-terminal truncation of AL1 fused to GST
T8 sequence: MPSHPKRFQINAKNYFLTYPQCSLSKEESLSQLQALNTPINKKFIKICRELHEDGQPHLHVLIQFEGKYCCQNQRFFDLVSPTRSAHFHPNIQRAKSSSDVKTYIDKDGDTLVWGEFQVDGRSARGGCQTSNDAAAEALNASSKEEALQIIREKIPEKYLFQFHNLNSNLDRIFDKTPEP

B1: GST-AL1 119-180 (other)
chain: VDGRSARGGCQTSNDAAAEALNASSKEEALQIIREKIPEKYLFQFHNLNSNLDRIFDKTPEP
B2: AL1 1-168 (other)
chain: MPSHPKRFQINAKNYFLTYPQCSLSKEESLSQLQALNTPINKKFIKICRELHEDGQPHLHVLIQFEGKYCCQNQRFFDLVSPTRSAHFHPNIQRAKSSSDVKTYIDKDGDTLVWGEFQVDGRSARGGCQTSNDAAAEALNASSKEEALQIIREKIPEKYLFQFHNLNS
B3: AL1 KEE146 (Ala5) fused to the Gal4 activation domain (pNSB894) (other)
chain: T3 sequence with K144A, E145A, E146A
B4: AL1 EKY159 (Ala7), full length, untagged (other)
chain: T3 sequence with E157A, K158A, Y159A
B5: AL1 1-158 (other)
chain: MPSHPKRFQINAKNYFLTYPQCSLSKEESLSQLQALNTPINKKFIKICRELHEDGQPHLHVLIQFEGKYCCQNQRFFDLVSPTRSAHFHPNIQRAKSSSDVKTYIDKDGDTLVWGEFQVDGRSARGGCQTSNDAAAEALNASSKEEALQIIREKIPEK

Experiments:
AL1 147-352 = target: T1, AL1 147-352; experiment: GST co-purification from insect cells, immunoblot
AL1 160-352 = target: T2, AL1 160-352; experiment: GST co-purification from insect cells, immunoblot
[1] = target: T3, TGMV AL1, wild type, full length, …; experiment: GST co-purification from insect cells, immunoblot
AL1 134-352 = target: T4, AL1 134-352; experiment: GST co-purification from insect cells, immunoblot
AL1 119-352 = target: T5, AL1 119-352; experiment: GST co-purification from insect cells, immunoblot
[2] = target: T6, Full length GST-AL1 1-352; experiment: GST co-purification on glutathione-sepharose from insect cells, immunoblot
[3] = target: T9, Wild type TGMV AL1 fused to the Gal4 DNA binding domain (pNSB736) (tomato golden mosaic virus (TGMV)); experiment: yeast two-hybrid, beta-galactosidase activity
T9 construct: also called TGMV AL1-DBD fusion; GAL4-BD AL1

[4] = target: Maize Rb (amino acids 214-866) fused to the Gal4 DNA binding domain (Zm214C) (maize)
GST-AL1(119-352) = target: T7, GST-AL1(119-352); experiment: GST co-purification from insect cells, immunoblot
GST-AL1 119-180 = target: B1; experiment: GST co-purification from insect cells, immunoblot
GST-AL1(1-180) = target: T8, GST-AL1(1-180); experiment: GST co-purification from insect cells, immunoblot
[5] = target: T6, Full length GST-AL1 1-352; experiment: GST co-purification from insect cells, immunoblot

Sequence of Maize Rb (amino acids 214-866) fused to the Gal4 DNA binding domain (Zm214C) (maize) (P04386 1-147): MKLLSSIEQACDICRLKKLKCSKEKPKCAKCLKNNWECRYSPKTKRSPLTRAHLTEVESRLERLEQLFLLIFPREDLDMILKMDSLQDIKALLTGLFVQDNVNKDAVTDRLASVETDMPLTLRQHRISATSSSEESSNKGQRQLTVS

B1
binding result (AL1 147-352): no binding
binding result (AL1 160-352): no binding
binding result [1]: binds
binding result (AL1 134-352): binds
binding result (AL1 119-352): binds

B2
binding result [2]: no binding

B3
AL1 interactions, percent of wild type AL1/AL1 mediated activation [3]: 51 % of wild type
RBR1 binding activity, percent of wild type [4]: 16 % of wild type

B4
binding result (GST-AL1(119-352)): binds
binding result (GST-AL1 119-180): no binding
binding result (GST-AL1(1-180)): no binding
binding result [5]: binds

B5
binding result [2]: no binding
